assay: soluble on expression in E. coli; label from the status in PepcDB or PDB records

Soluble on expression in E. coli, not soluble:
RQSVQTVLPESTGNNTLSLRDSVCRDLFQLFSSPHSPLPILLVSGMPEWQGHNQSDKLLQSWYCRQLRSALLFHEPRIAALQVNLKEAYCHELAISLEMMLYHDDEPLTFDLVWQKG
MAPASILCCDTDNRRPQMKLTGGCYCGALRYEAEGEPMLKAQCHCRACQSYSGGAPNLFMVMPAAGFRYVKGTPKSFRLEDRPDRVTRDFCATCGTGVASHRPGLPAVILKIGTLDDPALFKGPRAAVFAAEKQAFHIIPEGVHAFDGLPPT
MRATTIEEPARQVPLYGEYEVVVLGGGPAGIIAAASAARAGRKTLLIERYGFLGGMGTAAGVTNFCGLHGNVYGQAHRLVQGLASELLARIDLLNGLNTPHLILGKVFAQAYDTAAYKIAADELLASHKVNILFHALGAGVVMGDNSRIDALMVETKAGRQAVRSEIFIDCSGDGDLAVWAGAPFEVGDEHGHPLYPSMMLRLNNIDPEKAGEAWRTIPQLMEKALAAGTHKFPRKSAIVRPQKSGIEWRVNFTQVAREDGHAINGIEPDDLTRGEIEGRRQALAAFEFLRTVPGFEKSYIVDLPPQLGIRETRRIKGGYQLSGEDVLGCASFEDSIGVNGWPIEAHVPGDVIFTFPPIPESRGYNELPYRMLVPEGVDNLLVAGRCASMTHEGQSAARVSGACFVMGEAAGSAAALALSGNRIPRDIPIEKLQETLKQQGAFIGRDQPVPEGLLEHHHHHH
MGSDKIHHHHHHMNILEKLFSLKRKVALVTGGGQGIGKAIAQALAAAGAAVLIMDINEETARRTVEEIKEKGGEADFYVGDVTKEEDCFGAVKKALDRWGKLDIGVNNAGIGDWCEAENYPVEKWKKVIDVNLVGVFLSAKAEFHAMKERKYGKIINIASMSGHIVNKPQKQTAYNASKAGVIHLTRSLAAEWAPYGIRVNSISPGYIRTPLIESPNVKDLVPLWLDMIPLGRLGEVDDLIGAAIFLASPASDYMTGHDLVIDGGYTVW
MGSDKIHHHHHHAQNGNVLGQVIRLPKSKGNIYQLLGLVTERSGYLFIYDSKIIDNEQTTSIKGGDYTIQEAIYAITGNKNLAIRAIENHLLLYLPESPSAPKSASVTPDSIQTYFSIEGSLQDQYTHEPIAFGSVGIGEAAIGTITNQNGEFRLKLPDSLRLSKVRFSHIGYLPQEIDSRELIDKHTVLSLEPKVISIQEVIVRLTNPKRLLQEMLDKRRSNYSQHPIYLTTFYREGVERKKGLVGLTEAVFKVYKASYHSNALADQVKLLKMRRISNEQEKDTLITKMKSGIYSCLVLDLMKQLPEFLDPSPDSPYTYAHTDITVVDDRLANVISFEQRKSINEPLYRGQIYIDMENNALLRVDFEVNPQYIEQAAGMFVERKSRNLRITPQKVAYTVSYKQWNGTYYINHIRGDLHFKIKKRRQLFNTNILHTWFEMVTCKIDTANVNRFSRIESLPTRTVFSDTHFNYDEGFWGDFNVILPEDKLNEAISRITSKIEETNY

Soluble on expression in E. coli, soluble:
MEEVTIKANLIFANGSTQTAEFQGTFEQATSEAYAYADTLKQDNGEWTVDVADQGYTLNIQFAG
MGQRYKRMSSTDTNEYMSDNLAKAISNPLFPALDSMLRAGRHISTEDLDNHALLSDFELELSSFYQRYNTELVKAPEGFFYLRPRSTSLIGRSVLSELDMLVGKVLCFLYLSPERLAHEGIFTNQELYDELLALADEKKLMKLVTNRATGSDLDKEKLFEKVRTSLRRLRRLGMIINIGETGKFSISEAVFRFGADVRVGDDIREAQLRLIRDGEAVVHTKEPSQGSLLSEEDQEEQAQEEMTEEGEALEHHHHHH
MVRILPIILSALSSKLVASTILHSSIHSVPSGGEIISAEDLKELEISGNSICVDNRCYPKIFEPRHDWQPILPGQELPGGLDIRINMDTGLKEAKLNDEKNVGDNGSHELIVSSEDMKASPGDYEFSSDFKEMRNIIDSNPTLSSQDIARLEDSFDRIMEFAHDYKHGYKIITHEFALLANLSLNENLPLTLRELSTRVITSCLRNNPPVVEFINESFPNFKSKIMAALSNLNDSNHRSSNILIKRYLSILNELPVTSEDLPIYSTVVLQNVYERNNKDKQLQIKVLELISKILKADMYENDDTNLILFKRNAENWSSNLQEWANEFQEMVQNKSIDELHTRTFFDTLYNLKKIFKSDITINKGFLNWLAQQCKARQSNLDNGLQERDTEQDSFDKKLIDSRHLIFGNPMAHRIKNFRDEL

From the DeepSol protein solubility set
